Assay results reported in the supplement of paper PMC9170038.

System: K4 kissing-loop RNA reporter
Assay: apparent KD of K4 kissing-loop reporter; higher = weaker reporter binding
Conditions: Eterna round: R107
Description: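 RNA-MaP round R107: designed RNA switches with theophylline, tryptophan, arginine or FMN aptamers are transcribed on-chip within common flanks. They are titrated with a labelled K4 kissing-loop RNA reporter in RNA-MaP buffer (100 mM Tris pH 7.5, 80 mM KCl, 4 mM MgCl2), without ligand or with the indicated ligand. Median apparent KD per design.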

[1] = input ligand: theophylline 20 uM
[2] = input ligand: tryptophan 2.4 mM
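Also: bound reporter read as fluorescence of individual clusters on recovered sequencing chips by microscopy, with normalized cluster intensities fitted with a binding model.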

| Sequence | apparent KD of K4 kissing-loop reporter (input ligand: FMN 200 uM) | apparent KD of K4 kissing-loop reporter (input ligand: arginine 13.2 mM) | apparent KD of K4 kissing-loop reporter (input ligand: none) | apparent KD of K4 kissing-loop reporter [1] | apparent KD of K4 kissing-loop reporter [2] |
| --- | --- | --- | --- | --- | --- |
| GGCAGUGAUGUUGCCAGUGGCAGAUGCGAAGGAGCGUGGUGAGACACAGGUAGGUCGCGCAUUGAAAUUGCUGUCACUAAAAUGC [#3] | 338 nM | 346 nM | 326 nM | 369 nM | 261 nM |
| GGCCGCAAGGCGAGCGCUCCCACUCCGGAAGGAGCGCCCGGAAGGGCAGGUAGGUCGCCGGAGUGAUGUUCCGGUGGAGGGCUCG [#2 Exclusion - Arginine A Attempt #18 (Inspired by Omei)] | 435 nM | 319 nM | 417 nM | 772 nM | 469 nM |
| GGGAAGGACGGAGGAUAUGCACUGAGGAGGAGAAUAUAGUGAUGUUAUAUAAGAGGAAGGAGCUGAGUAGAAGGCCGAGGAAAGG [whbob_SS_FMNB__2th207] | 147 nM | 87.9 nM | 134 nM | 92.4 nM | 129 nM |
| GGGAGUAGUGCGGCCGCCACUGAGAAAGAAGAAGAAUAUAGUGAUGUUAUAUAGGAAAGGAAGAAUAGGACCGGGCAUUAGAUUU [SSTRyptB.J] | 229 nM | 173 nM | 263 nM | 238 nM | 257 nM |
| GGGAGUAGUGCGGCCGCCACUGUGAAAGUAGAAGAAUAUAGUGAUGUUAUAUAGGAAUAAAAGAAUAGGACCGGGCAUUAGAUUU [SSTRyptB.V] | 190 nM | 215 nM | 212 nM | 249 nM | 168 nM |
| GGGCGCGGCGCGGCCGCCACUGCGCCUGGGUGCUCGCCGAGUGAUGUUCGUCGGCGGUUGGGUGGCAGGACCGGGUGCCGGCCCG [BDazzled - #17 SS Tryptophan B] | 1580 nM | 533 nM | 3280 nM | 2140 nM | 457 nM |
| GGGUGAGCGCGAAGGAGCGCCCUGACAGGUUGCUGCCGUGGGCAGUGAUGUUGCUCAGUCCGGCAGGUAGGUCGCGUGCUCACCC | 187 nM | 163 nM | 164 nM | 210 nM | 170 nM |
| GGUAGCAUGGCGGCCGCCACUAUCCUUCAUGGUUGACAUUAAGGAUAGCAUAGUGAUGUUAUGAAUAGGACCGGGCCAUGCUACC | 175 nM | 136 nM | 163 nM | 137 nM | 149 nM |
| GGUAGCAUGGCGGCCGCCACUUACACCACGGCCCUUCUAGUGAUGUUAGAGUGGAUUAUUCCGUUAAGGACCGGGCCAUGCUACC | 629 nM | 430 nM | 745 nM | 650 nM | 273 nM |
| GGUGACAACCAGAGGUGAUGUAUAGAAUCGCGAGGACCGGUACGGCCGCCACUCGUGAAGAGAAAGGAGUGAUGUUCCGUAAUGG [Kazoo C6] | 271 nM | 249 nM | 282 nM | 364 nM | 124 nM |
| GGUGCUGUCUGUGCCGCCCUCCUCGUCCCUCGAGGACCGGUACGGCCGCCACUCGAGUGAUGUUCGGGUAGCCAUCCCUGCCAGC [BDazzled - #20 Exc. Tryptophan A] | 527 nM | 328 nM | 431 nM | 341 nM | 322 nM |
| GGUGCUGUUUGUGCCGCCUUCCUCGUUCCUCGAGGACCGGUACGGCCGCCACUCGAGUGAUGUUUGGGUAGCGAUCCCUGCUAGU [Bdazzled - #13 Exc. Tryptophan A] | 892 nM | 621 nM | 963 nM | 658 nM | 799 nM |
| GGUUUAUAGGAGGAUACCAGUACGGAUAAAGUACGUUAAUAGUAGAGUGAUGUUCUAAAGUACCCUUGGCAGCUUAGAGUGAGUG [ExTheophylB.M] | 98.6 nM | 164 nM | 136 nM | 182 nM | 94.3 nM |
| GUAGACGUACCUUCAGUGAUGUUGAAGGAUACCAGAUGUUACCACAUCCCUUGGCAGCCUUGGGAUAACAGUGAGUUGGAAUAUG [Usrite] | 182 nM | 137 nM | 172 nM | 156 nM | 150 nM |
| GUAGAUAGGCUACAUCUCUAGUCUAAAGACUAGGAUAUCAGGAAACUGAGAAGGAGUCUCAUUGGAGUGAUGUUCCAAGAAUAAU [KL-SSFMN-A16] | 100 nM | 106 nM | 89.2 nM | 109 nM | 71.7 nM |
| GUAGCACUUGAUAGUGAUGUUAUCAAGGGCAAGGAUAUCAUCUCAAUGAGAAGGUGUCCUUGAUAACUGCUACGGGAAUAUCCCA [Omei KL FMN A Exc D v6] | 444 nM | 89 nM | 96.8 nM | 86 nM | 102 nM |
| GUAUAUCGAGUGAUGUUCGAAUGCUCCGAAGGAGCGCGGAUAAUCGCAGGUAGGUCGCGGAGCAGUUGCUGAGGAAGCUCAGUAU [Arg A SS t11] | 162 nM | 401 nM | 211 nM | 211 nM | 147 nM |
| GUAUCGCUAGGAGGAUAUUUCAAUUCGCCUAUAAAUGGUGAUACGGAGUGAUGUUCCGAUUUACGGAAAGAAGGCCUAGUGAUAC [FMN B 8] | 146 nM | 275 nM | 283 nM | 298 nM | 282 nM |
| GUAUCGCUAGGAGGAUAUUUCAAUUCGUCAAUAAAUGGUGAUACGGAGUGAUGUUCCGAUUUACGGAAAGAAGGCCUAGUGAUAC [FMN B 7] | 173 nM | 265 nM | 298 nM | 287 nM | 285 nM |
| GUAUCGCUAGGAGGAUAUUUCAUAUAAUAUAUAAAUGGAUAUACGGAGUGAUGUUCCGAUUUACGGAAAGAAGGCCUAGUGAUAC [FMN B 18] | 134 nM | 183 nM | 214 nM | 229 nM | 202 nM |
| GUAUGUGGAAACACGUACUUAUAUCCUAGGCAGGAUAUGCGGAAACGCAGAAGGGCCACCGGCGAGUUUAUCCAGUGAUGUUGGA [Ex FMN A 8] | 251 nM | 253 nM | 294 nM | 271 nM | 245 nM |
| GUCGGCCGCGCGCAAGCGCGGCCGGCCGAUACCAGCGCGCCGGCGCGCCCUUGGCAGCGGCGCCGAGUGAUGUUCGGCCUGACGU [#2 Same State - Theophylline A Attempt #7 (HarryS)] | 710 nM | 538 nM | 704 nM | 601 nM | 917 nM |
